Data from article PMC10237660.

Target: C-terminal polyP binding domain of the E. coli exopolyphosphatase (EcPPXc) (E. coli strain K12)
Assay: SEC; analytical SE-UPLC, BEH200 4.6 x 300 mm column (Waters), running buffer 10 mM NaH2PO4, 400 mM (NH4)2SO4, pH 6.2; retention time compared with 158 kDa and 44 kDa standards

stoichiometry N: 2
Substance: C-terminal polyP binding domain of the E. coli exopolyphosphatase (EcPPXc) (domain or fragment)
